{
  "source": "the DeepSol protein solubility set",
  "data": [
    {"assay": "soluble on expression in E. coli; label from the status in PepcDB or PDB records", "values": [
      {"sequence": "MGSDKIHHHHHHMSDYNFAYLDEQTKRMIRRAILKGLAIPGYQVPFASREMPMPYGWGTGGVQVSAAALTPDDTFKVIDQGADDTTNAVSIRKFFERTAGVATTEETEKASIIQTRHRIPEADLREDQILVYQVPIPEPLRFLEPRETETRKMHALEEYGLMHVKLYEDISQHGAIATSYAYPVKVEGRYVMDPSPIPKFDNPKMEMAAIQLFGAGREQRIYAVPPYTKVVSLDFEDYPFEATKAEHPCDLCAAEDSYLDEVIVDDQGGRMFVCSDTDYCRSRREAGHVGRLGQNAPLNTGPEAA", "soluble on expression in E. coli": "not soluble"},
      {"sequence": "QRRLEVKGVVNNITVYDDFAHHPTAITATIDALRAKVGQQRILAVLEPRSNTMKMGVHKHELATSLQDADSVFIYQPPTIEWQVSEVLANLAQPAISADDVDELVMRIVQQAKPNDHILIMSNGAFGGIHQKLLTALANAFLMPS", "soluble on expression in E. coli": "not soluble"},
      {"sequence": "MGSDKIHHHHHHMSKGRHVCFLTGTLNAMAGAERMTAVIANALAESGHTVSILSLWDKDSCFPLHPAVGHEALFAERPSFKKAYLTTVAGIRRYCRERKVDVLVQVDTMLALLALPATVGLGVQHIAWEHCHFDEDLGRRARRYARRLAARYCKHVVVLTERDQLRWIEALQPRSQVVIIPNPLPFPFPEEPAPRTGKIVLAMGRLVNAKGFDVLIRAWQRVSAEVPDWKLVIHGEGEERPALSALIDELGLQDSVSLPGICRDATEAYREASIFCLSSRYEGFGLVLIEAMAFGLPIVSTNCEAGPRELLATGTVGLTVPVDAPTMLAASILDLIHQPDLALRFAHAERMFAKGYSLQQIGARWSDLTSARHGSMPQYS", "soluble on expression in E. coli": "not soluble"},
      {"sequence": "MGSDKIHHHHHHMTSDDLLPYGYIDAHHHVWAPDSHGDAIGYGWLRDIGAMKPFGDPTPIQRDYLMAEFLSEAPDAPRASVHVQTDGTLPDPVAETRFVQAQADATDHPVKIVGLADLGAEDLTGTLDRHAESRDFCGVRQIAARLDHRPDLTFAPQDYLADEQWVNGLKILEDRGLTFDLQIYPEQAEAALEALSATPALTVIIDHALCPYDPAKITQWQAAVALMAARDNTFIKLSGWGMYDAEWDLNGGVSVQPLVSHILERFGADRVMWGSNFPVEKLATRYETCRDVHLDMVPEDAHQDVFFNSAAKTYGLTLT", "soluble on expression in E. coli": "not soluble"},
      {"sequence": "MVVNKRLILILLFILNTAKSDELSWKGNDFTLYARQMPLAEVLHLLSENYDTAITISPLITATFSGKIPPGPPVDILNNLAAQYDLLTWFDGSMLYVYPASLLKHQVITFNILSTGRFIHYLRSQNILSSPGCEVKEITGTKAVEVSGVPSCLTRISQLASVLDNALIKRKDSAVSVSIYTLKYATAMDTQYQYRDQSVVVPGVVSVLREMSKTSVPTSSTNNGSPATQALPMFAADPRQNAVIVRDYAANMAGYRKLITELDQRQQMIEISVKIIDVNAGDINQLGIDWGTAVSLGGKKIAFNTGLNDGGASGFSTVISDTSNFMVRLNALEKSSQAYVLSQPSVVTLNNIQAVLDKNITFYTKLQGEKVAKLESITTGSLLRVTPRLLNDNGTQKIMLNLNIQDGQQSDTQSETDPLPEVQNSEIASQATLLAGQSLLLGGFKQGKQIHSQNKIPLLGDIPVVGHLFRNDTTQVHSVIRLFLIKASVVNNGISHGLEHHHHHH", "soluble on expression in E. coli": "soluble"},
      {"sequence": "MGSDKIHHHHHHMERFCCVNQINYIQMNPLEAKFKTSALRSWKTDQADAHKLACLGPTLKQTDNLPIHELIFFELRERVRFHLEIENEQNRLKFQILELLHQTFPGLERLFSSRYSIIALNIAEIFTHPDMVLDIDKEVLITHIFNSTDKGMSMDKATKYALQLRVIAQESYPNVDRHSFLVEKLRLLIQQLKQSIHHPKQLDDAMIQLAQQLDYFENIHSIPGIGKLSTAMIIGEIGDIKRFKSNKQLNAFVGIDIKRYQSGHTHCRDTINKRGNKKARKLLFWVIMNIIRGQHHYDNHVVDYYYKLRKQPNEKPHKTAIIACINRLLKTIHYLVMNHKLYDYQMSPH", "soluble on expression in E. coli": "not soluble"},
      {"sequence": "MASLKVPSNVPLPEDDAEQLHKAFSGWGTNEKLIISILAHRNAAQRSLIRSVYAATYNEDLLKALDKELSSDFERAVMLWTLDPPERDAYLAKESTKMFTKNNWVLVEIACTRPALELIKVKQAYQARYKKSIEEDVAQHTSGDLRKLLLPLVSTFRYEGDDVNMMLARSEAKILHEKVSEKSYSDDDFIRILTTRSKAQLGATLNHYNNEYGNAINKNLKEESDDNDYMKLLRAVITCLTYPEKHFEKVLRLSINKMGTDEWGLTRVVTTRTEVDMERIKEEYQRRNSIPLDRAIAKDTSGDYEDMLVALLGHGDA", "soluble on expression in E. coli": "soluble"},
      {"sequence": "MGSDKIHHHHHHMNGFCARLRAITHNERLKMKIAVLLSGGVDSSYSAYSLKEQGHELVGIYLKLHASEKKHDLYIKNAQKACEFLGIPLEVLDFQKDFKSAVYDEFINAYEEGQTPNPCALCNPLMKFGLALDHALKLGCEKIATGHYARVKEIDKISYIQEALDKTKDQSYFLYALEHEVIAKLVFPLGDLLKKDIKPLALNAMPFLGTLETYKESQEICFVEKSYIDTLKKHVEVEKEGVVKNLQGEVIGTHKGYMQYTIGKRKGFSIKGALEPHFVVGIDAKKNELVVGKKEDLATHSLKAKNKSLMKDFKDGEYFIKARYRSVPAKAHVSLKDEVIEVGFKEPFYGVAKGQALVVYKDDILLGGGVIV", "soluble on expression in E. coli": "not soluble"},
      {"sequence": "MNECGHCSVKVGEESAILTNGKVWHVNHLLCDLCNCRINDGERCVPQNGVILCSECHIKTTRPICKGCGEFIKTNLCEALNSTWHPTCFQCSVCQKPLEVDFHQLPNRMCVHSDCFWDLQLRMIVCKDLPK", "soluble on expression in E. coli": "not soluble"},
      {"sequence": "MTNFKDNDGDGTKLHVVMFPWLAFGHMVPYLELSKLIAQKGHKVSFISTPRNIDRLLPWLPENLSSVINFVKLSLPVGDNKLPEDGEATTDVPFELIPYLKIAYDGLKVPVTEFLESSKPDWVLQDFAGFWLPPISRRLGIKTGFFSAFNGATLGILKPPGFEEYRTSPADFMKPPKWVPFETSVAFKLFECRFIFKGFMAETTEGNVPDIHRVGGVIDGCDVIFVRSCYEYEAEWLGLTQELHRKPVIPVGVLPPKPDEKFEDTDTWLSVKKWLDSRKSKSIVYVAFGSEAKPSQTELNEIALGLELSGLPFFWVLKTRRGPWDTEPVELPEGFEERTADRGMVWRGWVEQLRTLSHDSIGLVLTHPGWGTIIEAIRFAKPMAMLVFVYDQGLNARVIEEKKIGYMIPRDETEGFFTKESVANSLRLVMVEEEGKVYRENVKEMKGVFGDMDRQDRYVDSFLEYLVTNR", "soluble on expression in E. coli": "soluble"},
      {"sequence": "MSLNIIRLLAESLPRISDGNENTDVWVNDMKFKMAYSFLNDDIDVIERELEQTVRSDYPLLSEAGLHLLQAGGKRIRPVFVLLSGMFGDYDINKIKYVAVTLEMIHMASLVHDDVIDDAELRRGKPTIKAKWDNRIAMYTGDYMLAGSLEMMTRINEPKAHRILSQTIVEVCLGEIEQIKDKYNMEQNLRTYLRRIKRKTALLIAVSCQLGAIASGADEKIHKALYWFGYYVGMSYQIIDDILDFTSTEEELGKPVGGDLLQGNVTLPVLYALKNPALKNQLKLINSETTQEQLEPIIEEIKKTDAIEASMAVSEMYLQKAFQKLNTLPRGRARSSLAAIAKYIGKREGHHHHHH", "soluble on expression in E. coli": "soluble"},
      {"sequence": "MKILLFICGEGLGHTGRCLALGKEFLAAGHEVNFGAYGYSKGLVQKTGYSAYEIPSEIKLAGEAGTFDIRKSIKETLNNLSPSGFRKILRLIEKLDPDVVLSDGYYTGILAAQKRKVPVYFIGHQFNMEEFFWKKGLFAGIAGIFVKRFYNYVFSSVDGIIVPDYPLPYSVNRKNFTISRAVNDNIFFSGPLIRCRYQEAGEKAFKRPNVLSTIGAFGYRAAVFRNVLEAAKLDPSIYYTFISGPEIDPEQFSKVPENVEFTGFTENPFPYYKGSDLVITAGGHGTIMESLAFGLPILSFPDEKHAEQENNASVLEEAGYGKRMSYLTPPEVILACIREIFEDENYSKKTRRLMELAEVLDGPAAVRKFLEEKHRGLEHHHHHH", "soluble on expression in E. coli": "not soluble"},
      {"sequence": "MLDYFFNPKGIAVIGASNDPKKLGYEVFKNLKEYKKGKVYPVNIKEEEVQGVKAYKSVKDIPDEIDLAIIVVPKRFVKDTLIQCGEKGVKGVVIITAGFGETGEEGKREEKELVEIAHKYGMRIIGPNCVGIMNTHVDLNATFITVAKKGNVAFISQSGALGAGIVYKTIKEDIGFSKFISVGNMADVDFAELMEYLADTEEDKAIALYIEGVRNGKKFMEVAKRVTKKKPIIALKAGKSESGARAASSHTGSLAGSWKIYEAAFKQSGVLVANTIDEMLSMARAFSQPLPRGNKVAIMTNAGGPGVLTADELDKRGLKLATLEEKTIEELRSFLPPMAAVKNPVDMIASARGEDYYRTAKLLLQDPNVDMLIAICVVPTFAGMTLTEHAEGIIRAVKEVNNEKPVLAMFMAGYVSEKAKELLEKNGIPTYERPEDVASAAYALVEQAKNVGILEVE", "soluble on expression in E. coli": "soluble"},
      {"sequence": "MGSDKIHHHHHHMAFTESDVYNNEAFFEQYMKRRYRENSPNEALEKPAFFQLISDVKGKRILDLGCGDAKFGEELLEKGCHSYTGIEGSELMYEKAKKQLENKNGAVHFLNLKDYTYPPSTFDLVTSRLALHYIEHLPIIFQNVYETLKTNGTFTFSVQHPIITSSFESLQTSGKRTSWLVDDYFKLGKRVEPWIDQEVIKYHRTTEEYFTLLQQAGFTITNLKEATPDQTYFQNAEEYERRLRIPLFLLFSCRK", "soluble on expression in E. coli": "not soluble"},
      {"sequence": "MNETSHEASECPAAVITGGARRIGHSIAVRLHQQGFRVVVHYRHSEGAAQRLVAELNAARAGSAVLCKGDLSLSSSLLDCCEDIIDCSFRAFGRCDVLVNNASAYYPTPLLPGDDTNGAADAKPIDAQVAELFGSNAVAPLFLIRAFARRQGEGGAWRSRNLSVVNLCDAMTDLPLPGFCVYTMAKHALGGLTRAAALELAPRHIRVNAVAPGLSLLPPAMPQETQEEYRRKVPLGQSEASAAQIADAIAFLVSKDAGYITGTTLKVDGGLILARA", "soluble on expression in E. coli": "soluble"},
      {"sequence": "ASSPANKVYQDRFESMYSKIKDPANGYFSEQGIPYHSIETLMVEAPDYGHVTTSQAMSYYMWLEAMHGRFSGDFTGFDKSWSVTEQYLIPTEKDQPNTSMSRYDANKPATYAPEFQDPSKYPSPLDTSQPVGRDPINSQLTSAYGTSMLYGMHWILDVDNWYGFGARADGTSKPSYINTFQRGEQESTWETIPQPCWDEHKFGGQYGFLDLFTKDTGTPAKQFKYTNAPDADARAVQATYWADQWAKEQGKSVSTSVGKATKMGDYLRYSFFDKYFRKIGQPSQAGTGYDAAHYLLSWYYAWGGGIDSTWSWIIGSSHNHFGYQNPFAAWVLSTDANFKPKSSNGASDWAKSLDRQLEFYQWLQSAEGAIAGGATNSWNGRYEAVPSGTSTFYGMGYVENPVYADPGSNTWFGMQVWSMQRVAELYYKTGDARAKKLLDKWAKWINGEIKFNADGTFQIPSTIDWEGQPDTWNPTQGYTGNANLHVKVVNYGTDLGCASSLANTLTYYAAKSGDETSRQNAQKLLDAMWNNYSDSKGISTVEQRGDYHRFLDQEVFVPAGWTGKMPNGDVIKSGVKFIDIRSKYKQDPEWQTMVAALQAGQVPTQRLHRFWAQSEFAVANGVYAILFPD", "soluble on expression in E. coli": "soluble"},
      {"sequence": "MSLTGFLLLHGTIVTVDRERRIIEDGALAINDDRIVDIGTVDELEPRHGGKEVIDCRGKLIIPGLIDAHGHAGHALLRSIAADTNAMWMKIITPTYYHYVTRDYWYADGLISGIERLRAGVTTGASIITSMPRADDPVFAINHARAYSELGLREIICVGPSGLPWPHPVTRWESGQPERRDVSFDEMMDGSEAVIETLHGSADGRISVFLTPFTIVPSVEPSNASSPDQAVKLTEGDRMQARRVREMARKRGVRLHSDAFAGQIRMAFQDKENALLGPDIHLQHCWGISHDEIDILAETGTRVTHAPPGRSTPIMEMMSKSIRVAITTDGAAPSRHFDMLQTARLAQFTQHLLHNHDRYLLPPGKIFEMITIDAAHAIGMEDEIGSLEIGKKADVVIIDMRKPHLMPMWMPVHRLVHQALGSDVDTVFVDGKLLMDNGRVLTSDVDAAITFGQQEAMALAERAGLKVHMHDPGWGRLLRTFDEQVYPPRPPKDASYRVTDHESGQDHEGHHHHHH", "soluble on expression in E. coli": "soluble"}
    ]}
  ]
}
